From the supplement of paper PMC6757056
± gives the standard deviation of the averaged measurements.

B1: library; a variant is named by its letters at N, in order (parent)
chain: GCUGUCACCGAGAAACUGUGAAGUAUAUCUUAAACCUGGGCACUUAAAAGAUAUAUGGAGUUAGUAGUGCAACCUGCUCGGUCUGAUGAGUCCNNNNNNGGACGAAACAGC

How the values were obtained:
cyclic di-GMP [1] = variants of: B1; assay: FACS-Seq fitted mean relative fluorescence mCherry/BFP without ligand (log10 relative fluorescence); HEK293T; ligand: cyclic di-GMP (c-di-GMP-II aptamer); higher = higher reporter protein expression; details: ligand present: no
In short: (§1)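 Enriched HEK293T cells carrying, by lentivirus, an mCherry reporter with the ribozyme switch and an EF1α-BFP marker spent 48 h with or without ligand and were sorted into 6 bins by mCherry/BFP. MiSeq sequencing of PCR-amplified bin genomic DNA gave bin counts. Fluorescence was calculated as the fitted normal mean of those counts. Counts were binned on log10(mCherry/BFP), and means were scaled to five spiked-in control ribozymes.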

cyclic di-GMP [2] = variants of: B1; assay: normalized RNA/DNA level without ligand (relative to sTRSVctl = 100) (log10 (% of sTRSVctl)); HEK293T; ligand: cyclic di-GMP (c-di-GMP-II aptamer); higher = less ribozyme self-cleavage, higher mRNA level; details: reporter: mCherry (pCS4076), ligand present: no
In short: (§2)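 For each 6-well well, 4 µg of library plasmid encoding mCherry-linked ribozyme switches, or eGFP-linked ones in some ligand experiments, was transfected into HEK293T. Any ligand was added 1 h before transfection, and RNA was extracted with EDTA 72 h after it, then reverse-transcribed, amplified, barcoded and sequenced. RNA level was obtained by dividing RNA reads by DNA reads, normalizing to a spiked-in non-cleaving sequence or to the top sequences, then scaling and log-transforming. The top set was 25 sequences, scaling was ×100 with log10, and ≥100 DNA reads were required.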

cyclic di-GMP [3] = variants of: B1; assay: FACS-Seq fitted mean relative fluorescence mCherry/BFP with ligand (log10 relative fluorescence); HEK293T; ligand: cyclic di-GMP (c-di-GMP-II aptamer); ligand concentration (+) FACS-Seq: 1 mM; higher = higher reporter protein expression; details: ligand present: yes
In short: as §1

cyclic di-GMP [4] = variants of: B1; assay: normalized RNA/DNA level with ligand (relative to sTRSVctl = 100) (log10 (% of sTRSVctl)); HEK293T; ligand: cyclic di-GMP (c-di-GMP-II aptamer); ligand concentration (+) RNA-Seq: 1 mM; higher = less ribozyme self-cleavage, higher mRNA level; details: reporter: mCherry (pCS4076), ligand present: yes
In short: as §2

| Variant | FACS-Seq fitted mean (log10) (cyclic di-GMP [1]) | normalized RNA/DNA level without ligand (log10) (cyclic di-GMP [2]) | FACS-Seq fitted mean (log10) (cyclic di-GMP [3]) | normalized RNA/DNA level with ligand (log10) (cyclic di-GMP [4]) |
| --- | --- | --- | --- | --- |
| GCUGUCACCGAGAAACUGUGAAGUAUAUCUUAAACCUGGGCACUUAAAAGAUAUAUGGAGUUAGUAGUGCAACCUGCUCGGUCUGAUGAGUCCCGGCCAGGACGAAACAGC [CGGCCA] | -0.425 ± 0.033 | 1.57 ± 0.099 | -0.137 ± 0.0032 | 1.73 ± 0.11 |
| GCUGUCACCGAGAAACUGUGAAGUAUAUCUUAAACCUGGGCACUUAAAAGAUAUAUGGAGUUAGUAGUGCAACCUGCUCGGUCUGAUGAGUCCCGGAGCGGACGAAACAGC [CGGAGC] | 0.169 ± 0.11 | 1.61 ± 0.052 | 0.426 ± 0.022 | 1.79 ± 0.065 |
| GCUGUCACCGAGAAACUGUGAAGUAUAUCUUAAACCUGGGCACUUAAAAGAUAUAUGGAGUUAGUAGUGCAACCUGCUCGGUCUGAUGAGUCCAGGAGAGGACGAAACAGC [AGGAGA] | -0.574 ± 0.012 | 1.37 ± 0.12 | -0.304 ± 0.011 | 1.48 ± 0.025 |
| GCUGUCACCGAGAAACUGUGAAGUAUAUCUUAAACCUGGGCACUUAAAAGAUAUAUGGAGUUAGUAGUGCAACCUGCUCGGUCUGAUGAGUCCCGGCACGGACGAAACAGC [CGGCAC] | -0.036 ± 0.21 | 1.64 ± 0.038 | 0.073 ± 0.042 | 1.8 ± 0.12 |
| GCUGUCACCGAGAAACUGUGAAGUAUAUCUUAAACCUGGGCACUUAAAAGAUAUAUGGAGUUAGUAGUGCAACCUGCUCGGUCUGAUGAGUCCCGGCAAGGACGAAACAGC [CGGCAA] | -0.818 ± 0.011 | 1.28 ± 0.077 | -0.675 ± 0.04 | 1.47 ± 0.097 |
| GCUGUCACCGAGAAACUGUGAAGUAUAUCUUAAACCUGGGCACUUAAAAGAUAUAUGGAGUUAGUAGUGCAACCUGCUCGGUCUGAUGAGUCCCGGCAUGGACGAAACAGC [CGGCAU] | -0.564 ± 0.044 | 1.49 ± 0.073 | -0.2893 ± 0.0014 | 1.64 ± 0.13 |
| GCUGUCACCGAGAAACUGUGAAGUAUAUCUUAAACCUGGGCACUUAAAAGAUAUAUGGAGUUAGUAGUGCAACCUGCUCGGUCUGAUGAGUCCAGGAUAGGACGAAACAGC [AGGAUA] | -0.5971 ± 0.0057 | 1.34 ± 0.12 | -0.199 ± 0.011 | 1.49 ± 0.018 |
| GCUGUCACCGAGAAACUGUGAAGUAUAUCUUAAACCUGGGCACUUAAAAGAUAUAUGGAGUUAGUAGUGCAACCUGCUCGGUCUGAUGAGUCCAGGAUGGGACGAAACAGC [AGGAUG] | -0.151 ± 0.021 | 1.48 ± 0.054 | -0.029 ± 0.059 | 1.63 ± 0.16 |
| GCUGUCACCGAGAAACUGUGAAGUAUAUCUUAAACCUGGGCACUUAAAAGAUAUAUGGAGUUAGUAGUGCAACCUGCUCGGUCUGAUGAGUCCAGGAUCGGACGAAACAGC [AGGAUC] | -0.0729 ± 0.071 | 1.63 ± 0.023 | 0.137 ± 0.019 | 1.78 ± 0.1 |
| GCUGUCACCGAGAAACUGUGAAGUAUAUCUUAAACCUGGGCACUUAAAAGAUAUAUGGAGUUAGUAGUGCAACCUGCUCGGUCUGAUGAGUCCUGGCAUGGACGAAACAGC [UGGCAU] | 0.119 ± 0.25 | 1.66 ± 0.11 | 0.414 ± 0.038 | 1.82 ± 0.043 |
| GCUGUCACCGAGAAACUGUGAAGUAUAUCUUAAACCUGGGCACUUAAAAGAUAUAUGGAGUUAGUAGUGCAACCUGCUCGGUCUGAUGAGUCCAGGCAGGGACGAAACAGC [AGGCAG] | -0.6414 ± 0.0033 | 1.758 ± 0.0064 | -0.399 ± 0.084 | 1.83 ± 0.097 |
| GCUGUCACCGAGAAACUGUGAAGUAUAUCUUAAACCUGGGCACUUAAAAGAUAUAUGGAGUUAGUAGUGCAACCUGCUCGGUCUGAUGAGUCCCGGAUAGGACGAAACAGC [CGGAUA] | -0.243 ± 0.057 | 1.19 ± 0.13 | 0.0478 ± 0.023 | 1.3 ± 0.1 |
| GCUGUCACCGAGAAACUGUGAAGUAUAUCUUAAACCUGGGCACUUAAAAGAUAUAUGGAGUUAGUAGUGCAACCUGCUCGGUCUGAUGAGUCCCGGAUUGGACGAAACAGC [CGGAUU] | -0.623 ± 0.0076 | 1.4 ± 0.18 | -0.3382 ± 0.0012 | 1.54 ± 0.038 |
